From patent US20100256338A1 (Hoffmann-La Roche, published 2010) come the findings set out here.

One assay addresses T1, EGFR-ECD (human, UniProt P00533 25-645).
T1 construct: extracellular domain; also called human EGF-Receptor
In words: SPR (Biacore T100), antibody captured by anti-human IgG, EGFR-ECD as analyte, 25 C. On the technique in general: SPR reads the build-up and loss of mass on a sensor chip optically.

Assay [1] concerns the target T2, IGF-1R (soluble analyte in SPR) (human, UniProt P08069 31-932, limits assumed).
T2 construct: also called human IGF1-Receptor
In words: SPR (Biacore T100), antibody captured by anti-human IgG, IGF-1R as analyte, 25 C.

B1: scFab-XGFR2_2720 (bispecific antibody)
chain 1: not shown
chain 2: DIQMTQSPSSLSASVGDRVTITCRASQGINNYLNWYQQKPGKAPKRLIYNTNNLQTGVPSRFSGSGSGTEFTLTISSLQPEDFATYYCLQHNSFPTFGQGTKLEIKRTVAAPSVFIFPPSDEQLKSGTASVVCLLNNFYPREAKVQWKVDNALQSGNSQESVTEQDSKDSTYSLSSTLTLSKADYEKHKVYACEVTHQGLSSPVTKSFNRGEC
As usually defined, the Kd is the equilibrium constant for the complex coming apart. On to B1, for which the Kd is 0.5 nM in the assay with EGFR-ECD and 11 nM in assay [1].

B2: humanized <EGFR>ICR62 (antibody, V domains shown)
VH: QVQLVQSGAEVKKPGSSVKVSCKASGFTFTDYKIHWVRQAPGQGLEWMGYFNPNSGYSTYAQKFQGRVTITADKSTSTAYMELSSLRSEDTAVYYCARLSPGGYYVMDAWGQGTTVTVSS
VL: DIQMTQSPSSLSASVGDRVTITCRASQGINNYLNWYQQKPGKAPKRLIYNTNNLQTGVPSRFSGSGSGTEFTLTISSLQPEDFATYYCLQHNSFPTFGQGTKLEIKR
notes: Humanized rat anti-EGFR antibody, 'wildtype' IgG parent; also called humanized rat anti-EGFR antibody <EGFR>ICR62
For B2, the equilibrium dissociation constant (Kd) with EGFR-ECD was 0.5 nM.
